# Measurements as given in a protein production outcome set (Wang et al. 2014).
# Assay: label from the status in PepcDB records
# 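Further: failed if final PepcDB status was selected cloned or expressed and not failed if soluble or beyond.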
row,Sequence,protein production
1,MAKENEHFLKPDNQSPEESEQLDTVSMEPSQEIWNSTEQETSELQSDTFLSPATVRNSQTTDGYGQAEIVPATPSFMSAAGDSEEVGTPGRSLSEVFSASSLGQRSTRAADRESLQRHELGTNSFSLFSPEKEISFRNRKELEAPSGAAEEIERRVIWGTNVNVDECEQKIKKFLYEFTATTVQQDYEDGDGLQQAKPKPYYLELLTHANEMQYEVINIDLQHVFEFDSELYAYVVTYPTELIAIFDQTLQEVCKEMFATDDSSDIMSSGTSNFHAGRLITRMYNMKDTEIHSMREIDPSHIHQMIGVRGMVVRCSSVIPNMNRAFYSCNNCHWSLFVDIQRGKIEEPIQCDKCQARNSFMLIHNRSVFSDKQMIRIQETPETVPQGETPATMTIVAYDSLVDSARPGDQIEVTGILRAVSVRINPKQRSIRSVFRTYIDAIHILKGKQGRLSNSTEHMDTTSDYYPIGSDTSENALYYFERERSIREISQDPLLYDKLSRSIAPSIYGHEDLKKGILLQLFGGTRKDFSASGGGHFRSDIHVLLVGDPGTSKSLFLQYVHRIAPRGLYTSGRGSSAVGLTAYVTRDPDSNDMVLESGALVLSDKGICCIDEFDKMTDSTRSILHEAMEQQTVSIAKAGIICSLNARTSVLAAANPVESRYNPKLSVVDNIQLPPTLLSRFDLIYLILDNANPEEDKRLGNHITSLFSADTAVVHSDEDPLPSLEPATIHMPNSSHSFLDSTTLASYISYAREKVHPKLNDDAVQRLTKGYVEMRRMGNASKSWSGGIKTITATPRQLESLIRLSEAHAKMRLSDVVESQDVDEALRLVQVAMQQSAIDPITGTIDMDLITTGKSATKRSRIAKLGEAIFQYLQQTKTSDTAVRTSDVLMEVKRSSSMPFTEQDFDDAIHYLVEEERIFRVAGGLRVGTSW,failed
2,MAKGDQYQAHTEKYHDKKSKKSYKPVWIIISFIILITILLLPTPAGLPVMAKAALAILAFAVVMWVTEAVTYPVSATLILGLMILLLGLSPVQDLSEKLGNPKSGDIILKGSDILGTNNALSHAFSGFSTSAVALVAAALFLAVAMQETNLHKRLALLVLSIVGNKTRNIVIGAILVSIVLAFFVPSATARAGAVVPILLGMIAAFNVSKDSRLASLLIITAVQAVSIWNIGIKTAAAQNIVAINFINQNLGHDVSWGEWFLYAAPWSIIMSIALYFIMIKFMPPEHDAIEGGKELIKKELNKLGPVSHREWRLIVISVLLLFFWSTEKVLHPIDSASITLVALGIILMPKIGVITWKGVEKKIPWGTIIVFGVGISLGNVLLKTGAAQWLSDQTFGLMGLKHLPIIATIALITLFNILIHLGFASATSLASALIPVFISLTSTLNLGDHAIGFVLIQQFVISFGFLLPVSAPQNMLAYGTGTFTVKDFLKTGIPLTIVGYILVIVFSLTYWKWLGLV,failed
3,MAKKAMENGYKLILGSQSMARKQILAEMGYDFTIVTADIDEKAIRKEKPEDLVVTIAEAKANEIILKLGGENQFTQDSQPTLLITADTVVVYKGWDKAEVYFHEIPEHVIDDLIDDAITFKVAGGLMLEHPLISPFIDSVVGGVDTVMGLSKELTEKFINDVL,failed
4,MAKKENQQPDNHVGEVVSRSEQFIEKNMTKIGLVILGVFIIVAGIFAYKRFVSEPKAREAAAKVYLAEDKFIQELDSAALNGNGANEMGLLTVIKKYSGSDASNLAKAYAGICYYNLGEYQKAIDHLKGFSSKENMVAPSITRLIGDCYVQLKKYEEAVGYFEKAAAAASNDAITPGCLIKAGRVYEELKQYDKALAAYKQVKEKYYTSMEANTVEADIIRVKTKGAK,failed
5,MAKKKIVAVIQARMGSSRLPGKVLMTVAGKPLLEHIIDRLRRSRTLDDIVIATSDKPCDDPLVDFAQTRGVTLVRGSEDNVLLRFNKAAEEVDADVIIRVTGDAPLVDPEVMDRLVRTLLQEGAEYCTIEAGINSIHEGFCTFTRGALKRLMTEAPDDPVAIEHVTAYFIAHPDKFHIARIPVGNEHRFKGARLSVDTPADVQFFDELYRLLGVPAGDADIADVVRLLRNNPHLLQINQHVYQKKATDRSHKVLIRCDGDSRTGLGHVVRCLALAGELREKQGCGIIFAMASGEPGMKMVRQADFPLERQEDADEGEWMDGLISRHHPDVLILDIRNDLPVEKVDSWREDGILVVGIDDPTPRRLAADLLFYPPIPQISELNWNNFNGEICSGWEWVLLRKQFCAPCPPRNNNPPALLLTMGGSDPANFTVRVLRVLDELQNDFETIVVIGAGFVHEEDLQQFLSQARRHYRIEREVSDMASLMRQADLAIASFGVTAYELAASGVPAVYLCLTPDHARSASKFVDDRLAFSCGVLEECSNERIIESTLSLLDSRELRHEVGRRACATVDGYGATRIATKIVEKLERMHSSHGLEHHHHHH,failed
6,MAKKWQQRAALRRKRISFHRSTDTTSSSTAAEKGCFVVYTSDRIRFAFPISYLSNSVIQELLKISEEEFGIPTEGPITLPFDSVFLEYLIRLVQRRMDGDTEKALITSISSTRCSLPCSFQLQEHSSTRLVF,failed
7,MAKLHIPVMVDEVVHCLSPQKGQIFLDMTFGSGGHTKAILQKESDIVLYALDRDPTAYALAEHLSELYPKQIRAMLGQFSQAEALLMKAGVQPGTFDGVLMDLGCSSMQLDTPERGFSLRKDGSLDMRMDGGRSTGTCIYPKNIRGGEACQENRFSNCSGTQHLPHHQNPAACQHRCRSISSLCYLYTERLTTAIYPYCHQDFPGSSHICEQ,failed
8,MAKLHITTWGCQMNEYDSSKMADLLNSTHGLELTDKPEEADILLLNTCSIREKAQEKVFSQLGRWKNWKKDKPDLIIGVGGCVASQEGEHIRERAPFVDIVFGPQTLHRLPEMINQIRSGDRAVVDISFPEIEKFDRLPEPKAEGPTAFVSIMEGCNKYCSFCVVPYTRGEEVSRPVDDVLFEIAQLAEQGVREVNLLGQNVNAYRGETFDGGICTFAELLRLVAAIDGIDRLRYTTSHPIEFTDDIIEVYRDTPELVSFLHLPIQSGADRVLTMMKRNHTALEYKAIIRKLRAVRPNIQISSDFIVGFPGETAEDFEQTMKIIEQVNFDMSFSFIYSARPGTPASDLPDDVSENEKKDRLAHLQQRINHQAMQFSRLMLGTEQRILVEGPSKKDIMELTGRTETNRVVNFIGTPNMIGKFVDIKITDVYSNSLRGEVIRTEDQMGLRIVESASSVIARTRKEDDLGVGKYAVNLLEHHHHHH,failed
9,MAKLVTENISKRFKNQDVLKHINITLENNEVYGLLGINGAGKTTLMKIICGILQQDSGEIKLDNRPMTRNDLHKVGSLIETPATYNHLSAQDNLKIVCLNESVDFSEINSVLSLVNLNVDKKKKVKDFSLGMKQRLGIAMALIKKPEILVLDEPSNGLDPYGIQELRELLKLLTEQGTSIIISSHILSEIQVLADHIGIIHEGELKYQQRNNKDENLEEIFFKITKGDYK,failed
10,MAKPIRVLLYYKYVPIENAEQFAADHLAFCKSIGLKGRILVADEGINGTVSGEYETTQKYMDYVHSLPGMEDLWFKIDEEEEQAFKKMFVRYKKEIVHLGLEDNNFDSDINPLETTGAYLSPKEFKDALLDEDTVVLDTRNDYEYDLGHFRGAIRPDIRNFRELPQWVRDHKEEFMDKRVVVYCTGGVRCEKFSGWLVREGYKDVGQLHGGIVTYGKDPEVQGELWDGKLYVFDERIAVDVNHVDPIVVGKDWFDGTPCERYVNCGNPFCNRRILTSEENEDKYLRGCSHECRVHPRNRYVSENDLSQEEVVERLAAIGESLDVTPA,failed
11,MAKPNIDELNQILTSYQNTINDTLQLFEQVPSPTQDKLYWNDVLQISDHLSKQATIVGMLWITGEPPKAEAMKETMEAYFNALQGFLLHCHGSMVGAGTTLSSTIHASVKQIVDSSFRLLQGSVSLYEGSYEKGRKPTIPQLAGAVWEACSNLKNVPETNIKAIGRAMAHVAVSMKDVLREMKELKPASSSPDHNVSTNSDDDDLGDELSPEEFEVAKMVADIVSETLVVIKELIRAITCMIKLENPKDNSEFVDSFEKLLKLCQGIGVQIDELGACVYPPQEFGLMKQTVENMRESIGEIESDVKSSKNSSSEALSGSCRRLQSLIEHMVTELDTRIEAEVVYKMQNVTL,failed
12,MAKQATTSRLLPESMDNSGEFWLHAFESLVADLPEPAFVVDADGDITHWNQAVENILGLPASEAVGMNAYDVFGTEGQDETLAQEVIRTGEPVREDEFRSAERPDGTMAHARAVAIPLMGPGGDAIGALELLIDFSDIVEQREALQSLQSQMATDVESAVGEIGDSAAAVTEQSDDIKQMAGEQSENLDEVQSEVSGFSATVEEIASSAEEVSSQSGEARELAEESVETAEETIERVEDATESAEQVASDSTELRGHIEEIDEFVEVINDIADQTNMLALNANIEAARSNSDSDGFAVVADEIKELADESKQHADEVERIVGEVREMADSTAENVEETTDAIQQALTDIETVLDNQQAIVDATSETEQGIGEVAAATDDQAASAEEIASMIDEIAQRAAEVSESIDELADANETQHRLAQDLEENVERVERRLAEIME,failed
13,MAKRTPSIDTKNLTAVQLMELDACVRCGECVKWCPTYAASGGKPGLAPRDKILRWRQYMNKSYGLKAKLFGPQEVSPSELEEFKDDVHGCTTCGVCATVCEAGINTVEIWEAIRTNLVKKGIGPYGKQSAFPKLVGQYHNPYMKDQKDRLAWVPPDVKIEDKADIVYFTGCTAGYNQLALAFATSRVLNKLGIKFAMLGEEEWCCGSALIRTGQVHVDDVARELARHNVEALQKKGAKKVLFACAGCFRAAKIDWPRLLGKELPFEVIHITQFLADLIQADKIKWEKPINKTITYHDPCHLGRHVGVFNAPRYVLSHIPGVKFVEMDRSKEFQRCCGAGGGVKAGMPDLAVAMGESRVKDALETNADILSSACPFCKRNLSDGRDALKSDIVVEDIIELVAEALGLSTS,failed
14,MAKSMRCKRVKRLRAIRREIVEKESFTLTREDAKSAAIEAALAAPKLPVRQAPVSPFMEVATPSSESASASTTIANDSDEEMDDEKKNKSLKPIGKKLKKKFKLGMKNRRSKGVLRGKRN,failed
15,MAKTDRSQPSVLARIAAFRTGLSAEASAADYLERQGYRILARRFKTRCGEIDLVAQRDALVAFVEVKARGNVDDAAYAVTPRQQSRIVAAAEAWLSRHPEHAMSELRFDAILIAPNTAPRHLPGAFDATP,not failed
16,MAKTIYQPAPEAESNIREERSQRPNNRRRILLITVAASVILGLVAILFGGAILNPAATPESEPTMTATQIIPLVILVVMFVVATKWPLNIGVMGLVASFGVGYFMLGMTDKEILADFPANIVITIIGVTYFFSMAQRNGTVDIIVQTCVRLVRGKTLLLPWVFFLLAASLTALGTFSPAAVALLAPAAIGLAYESRIHPVLMGAFIINGAHAGGFSPLSVAGVLVHDIAVKNGFPISQGALFGASFALNLILSVLTVVLFALLGKLRDGATGQHADLDTTRTTRPHGQQILTLALIVAMLVCALGFHMPIGFVALSAGLLLALVNIKEHRTFIGGVSWSTVLLVAGMITYVSLLQHVGVIDTLAEQALALGAPLLIALVLCYVIGVGSAFASSTALLTAFIPLAGPLLATSSLSASGTVAALAIAATVVDVSPFSTDGALVVANAREDDRQRVYKQLMMYAGGVVLVAPALAWALLVPTGIM,failed
17,MAKTLGLHILADLYGVDADKIDRVEDIRELLEGAVKYANLTKISSHYYQFQPHGATGVVLLAESHISIHTWPEHGLATVDVYTCGDPSKAYRAMDYIITQLNPKRIDKQVHERGIVEEESNQSEAEKLRSILLQV,not failed
18,MALAGLLLGSALASSARAQSSDAAKPELEDALAVVDSLRRAGAFPAAQERLQSLREQHPERVPVLWRLVYTYADLGQSTDEENVRAQYYNNALNVAKAGLAADSTSARAHLAMAVAQGRAALDAGTRERIERSRAVKRHADRALAIDSTLDGAYHTRGRWHREVEDIGFVQRAIVKTVYGGLPESSIDQAVRDFRRALELRDRIFHHLELGKTYLQMDRPDAARRELRAVLDMPAEEPFDPRYKDEARRLLDDLD,failed
